{"source": "paper PMC3384303", "about": "(Nucleic Acids Research, 2012)", "proteins": {"B1": {"name": "SsbB (natural protein, Bacillus subtilis, UniProt C0SPB6 1-113, looked up)", "chain": "MFNQVMLVGRLTKDPDLRYTSAGAAVAHVTLAVNRSFKNASGEIEADYVNCTLWRKTAENTALYCQKGSLVGVSGRIQTRSYENEEGVNVYVTEVLADTVRFMDPKPREKAAD"}}, "target": "the molecule itself", "test": "crystal structure"}
{"protein": "B1", "values": [{"measurement": "stoichiometry N", "value": 4}]}
